By koff is commonly meant a measure of how fast the partners let go of each other. A lower koff goes with a long-lived complex.

Experiment [1] addresses T1, LFA-1 (mouse (endogenous in OT-II T cells), UniProt P24063 24-1162; P11835 24-771).
T1 construct: integrin αL subunit of LFA-1, mouse; integrin β2 subunit of LFA-1, mouse; also called αL/β2 integrin; source: endogenous, on naive OT-II T cells and OT-II T cell blasts (mouse)
The experiment can be described thus: single-molecule tracking by TIRF microscopy on supported lipid bilayers; ATTO-647N-labeled ICAM-1-GPI (300 molecules/μm^2) and I-A^b-OVA peptide (200 molecules/μm^2) in supported planar lipid bilayers; naive OT-II T cells or OT-II T cell blasts (also Rap1b KO, Mst1/2 DKO, kindlin-3 or NDR1 knock-down cells) on top; 30 frames/s for 200 s; arrests of 0.5 to 200 s counted as binding; koff from a single exponential fit …. The conditions noted are these: one partner purified.

Experiment [2] deals with T1, LFA-1. The experiment is described as follows: single-molecule tracking by TIRF microscopy on supported lipid bilayers; as a1 but with 1 mM Mn^2+ and in the absence of pMHC, similar ICAM-1 density. The conditions noted are these: one partner purified.

T1 sequence (P24063 24-1162, chain 1 of 2): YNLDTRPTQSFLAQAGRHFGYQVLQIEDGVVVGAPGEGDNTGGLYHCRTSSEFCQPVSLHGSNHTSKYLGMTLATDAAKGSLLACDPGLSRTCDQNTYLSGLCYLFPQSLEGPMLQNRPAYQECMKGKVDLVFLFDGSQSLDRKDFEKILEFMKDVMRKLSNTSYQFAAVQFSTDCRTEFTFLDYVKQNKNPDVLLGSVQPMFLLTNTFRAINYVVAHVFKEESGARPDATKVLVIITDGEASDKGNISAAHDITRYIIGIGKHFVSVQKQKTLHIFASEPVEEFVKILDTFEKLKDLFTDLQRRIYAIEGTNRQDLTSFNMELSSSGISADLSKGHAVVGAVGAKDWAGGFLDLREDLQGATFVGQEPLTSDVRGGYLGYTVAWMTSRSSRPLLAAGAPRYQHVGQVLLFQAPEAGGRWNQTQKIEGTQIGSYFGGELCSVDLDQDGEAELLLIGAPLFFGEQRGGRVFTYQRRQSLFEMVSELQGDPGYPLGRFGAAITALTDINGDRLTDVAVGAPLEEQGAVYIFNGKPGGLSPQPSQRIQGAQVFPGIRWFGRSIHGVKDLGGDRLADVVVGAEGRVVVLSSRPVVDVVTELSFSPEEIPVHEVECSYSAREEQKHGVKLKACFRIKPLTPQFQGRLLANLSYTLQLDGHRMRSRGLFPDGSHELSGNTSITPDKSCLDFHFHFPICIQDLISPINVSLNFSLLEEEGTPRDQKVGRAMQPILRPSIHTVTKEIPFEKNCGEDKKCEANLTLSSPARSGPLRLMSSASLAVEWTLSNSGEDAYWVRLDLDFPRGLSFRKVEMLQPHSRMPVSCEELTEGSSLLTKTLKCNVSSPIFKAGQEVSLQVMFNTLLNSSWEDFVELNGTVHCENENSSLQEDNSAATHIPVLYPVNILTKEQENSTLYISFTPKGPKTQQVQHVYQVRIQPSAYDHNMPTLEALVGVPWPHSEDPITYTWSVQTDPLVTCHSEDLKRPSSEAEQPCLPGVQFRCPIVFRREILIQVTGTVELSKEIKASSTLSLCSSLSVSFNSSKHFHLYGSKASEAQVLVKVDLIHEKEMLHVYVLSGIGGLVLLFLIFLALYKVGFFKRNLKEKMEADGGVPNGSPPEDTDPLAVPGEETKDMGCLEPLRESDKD
T1 sequence (P11835 24-771, chain 2 of 2): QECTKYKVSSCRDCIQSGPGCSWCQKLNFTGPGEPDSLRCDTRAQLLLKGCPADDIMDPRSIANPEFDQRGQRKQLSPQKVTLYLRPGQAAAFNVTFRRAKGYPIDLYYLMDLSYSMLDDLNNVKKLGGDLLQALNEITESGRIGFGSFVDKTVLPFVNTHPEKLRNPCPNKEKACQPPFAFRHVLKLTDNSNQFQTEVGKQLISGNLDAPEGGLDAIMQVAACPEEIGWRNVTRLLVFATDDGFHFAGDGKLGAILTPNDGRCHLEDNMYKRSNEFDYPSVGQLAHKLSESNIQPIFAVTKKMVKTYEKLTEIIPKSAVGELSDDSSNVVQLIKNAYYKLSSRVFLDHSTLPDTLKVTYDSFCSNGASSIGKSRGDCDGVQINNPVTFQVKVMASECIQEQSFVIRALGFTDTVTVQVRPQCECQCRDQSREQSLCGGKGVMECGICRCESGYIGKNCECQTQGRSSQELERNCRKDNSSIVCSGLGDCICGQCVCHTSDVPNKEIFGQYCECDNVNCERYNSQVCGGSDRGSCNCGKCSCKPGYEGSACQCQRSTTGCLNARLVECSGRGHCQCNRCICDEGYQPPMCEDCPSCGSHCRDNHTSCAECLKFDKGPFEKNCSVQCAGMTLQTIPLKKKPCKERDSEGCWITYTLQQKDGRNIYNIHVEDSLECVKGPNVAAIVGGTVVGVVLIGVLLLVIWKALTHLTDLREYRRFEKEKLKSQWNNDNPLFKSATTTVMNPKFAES

B1: Mouse ICAM-1-GPI (ligand)
chain: QVSIHPREAFLPQGGSVQVNCSSSCKEDLSLGLETQWLKDELESGPNWKLFELSEIGEDSSPLCFENCGTVQSSASATITVYSFPESVELRPLPAWQQVGKDLTLRCHVDGGAPRTQLSAVLLRGEEILSRQPVGGHPKDPKEITFTVLASRGDHGANFSCRTELDLRPQGLALFSNVSEARSLRTFDLPATIPKLDTPDLLEVGTQQKLFCSLEGLFPASEARIYLELGGQMPTQESTNSSDSVSATALVEVTEEFDRTLPLRCVLELADQILETQRTLTVYNFSAPVLTLSQLEVSEGSQVTVKCEAHSGSKVVLLSGVEPRPPTPQVQFTLNASSEDHKRSFFCSAALEVAGKFLFKNQTLELHVLYGPRLDETDCLGNWTWQEGSQQTLKCQAWGNPSPKMTCRRKADGALLPIGVVKSVKQEMNGTYVCHAFSSHGNVTRNVYLTVLYHSQNN
modifications: GPI anchor; labeled with ATTO-647N-NHS-ester
With B1, the koff in experiment [1] was found to be 0.032 s⁻¹. For the same molecule, the “fold increase of binding durations longer than 10 s with Mn^2+” value in experiment [2] worked out at 2 fold.

These data come from paper PMC5376635, “NDR1-Dependent Regulation of Kindlin-3 Controls High-Affinity LFA-1 Binding and Immune Synapse Organization” (Molecular and Cellular Biology, 2017).
